The source of these data is publication PMC11784564 (RSC Chemical Biology, 2025).

Data set [1] addresses T1, PfSir2A (Plasmodium falciparum) (UniProt Q8IE47).
T1 sequence: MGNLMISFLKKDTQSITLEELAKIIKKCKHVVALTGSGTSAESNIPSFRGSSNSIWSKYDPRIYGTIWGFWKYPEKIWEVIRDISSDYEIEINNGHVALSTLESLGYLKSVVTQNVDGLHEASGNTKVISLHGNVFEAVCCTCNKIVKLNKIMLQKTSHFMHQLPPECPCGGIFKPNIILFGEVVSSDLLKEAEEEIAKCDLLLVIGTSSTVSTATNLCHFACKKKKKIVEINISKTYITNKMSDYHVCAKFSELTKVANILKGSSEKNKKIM
Nature of the data set: EMSA. Conditions: room temperature. Background: A gel shift assay detects complexes by their altered migration in electrophoresis.

The target in data set [2] is T2, PfSir2A (Plasmodium falciparum, UniProt Q8IE47).
T2 sequence (Q8IE47 1-273): T1 sequence
Nature of the data set: HPLC deacetylation assay with H3K9Ac peptide. Type of data set: biochemical.

For data set [3], the target named is T2, PfSir2A. Nature of the data set: HPLC demyristoylation assay with H3K9Myr peptide. Type of data set: biochemical.
Data set [4] has as its target T3, PfSir2A (Plasmodium falciparum, UniProt Q8IE47 1-273).
T3 sequence: T1 sequence
Nature of the data set: MST.

In the case of “601 nucleosome assembly sequence DNA, 147 bp”, the Kd – broadly, the equilibrium constant for the complex coming apart – in data set [1] ([…]) / MST buffer) came to 4 µM.

Take `c1cncc(-c2c[nH]nn2)c1` [3-TYP]: the half-maximal inhibitory concentration (IC50) (as a rule, the midpoint of a concentration-inhibition curve) in data set [2] was about 59.6 µM.

`CCCCCCCCCCCCCC(=O)O` [myristic acid] gave a half-inhibitory concentration (IC50) in data set [3] of 107 ± 15 µM.

Take `NC(=O)c1ccc[n+]([C@@H]2O[C@H](CO)[C@@H](O)[C@H]2O)c1` [nicotinamide riboside]: it took 155 ± 14.9 µM to reach half-maximal inhibition in data set [2] (IC50).

The molecule H3K9Ac dNuc (601-positioned nucleosome) gave a dissociation constant Kd in data set [1] (H3K9Ac on histone H3; […]) / MST buffer) of 1.4 µM.

B1: ssDNA (MST) (ssDNA)
DNA: GAAGTCGGGGATGGCAGAGGCAGTGCT
Turning to B1, binding in data set [4] was put at a Kd of 0.138 µM.
